These results are taken from US20170204182A1 (published 2017).

Assay [1] concerns the target T1, phosphorylated human tau protein (human, UniProt P10636-8 1-441, limits assumed, S422 phosphorylation).
T1 construct: also called pTau
Kind of assay: SPR BIAcore. On the technique in general: In SPR one partner is held on a chip, and binding of the other changes the refractive index at the surface.
T1 sequence (P10636 other isoform, or with tags, fused parts or gaps limits assumed): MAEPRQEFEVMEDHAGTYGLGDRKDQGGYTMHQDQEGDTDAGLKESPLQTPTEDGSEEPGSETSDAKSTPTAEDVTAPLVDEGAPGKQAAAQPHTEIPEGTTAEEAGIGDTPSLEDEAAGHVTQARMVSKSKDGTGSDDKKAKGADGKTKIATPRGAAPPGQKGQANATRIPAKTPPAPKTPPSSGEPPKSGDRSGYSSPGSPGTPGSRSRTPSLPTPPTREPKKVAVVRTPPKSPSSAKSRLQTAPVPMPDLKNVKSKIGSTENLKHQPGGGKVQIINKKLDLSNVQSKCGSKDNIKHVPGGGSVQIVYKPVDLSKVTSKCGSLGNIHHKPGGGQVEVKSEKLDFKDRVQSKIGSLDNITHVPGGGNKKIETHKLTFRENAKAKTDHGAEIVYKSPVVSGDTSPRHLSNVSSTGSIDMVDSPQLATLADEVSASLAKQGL

Assay [2] deals with T2, phosphorylated human tau protein (human, UniProt P10636-8 1-441, limits assumed, S422 phosphorylation).
T2 construct: also called pTau
The experiment in a line: SPR (BIAcore), captured antibody.
T2 sequence (P10636 other isoform, or with tags, fused parts or gaps limits assumed): as above

B1: Rb86 HC Rb86 / LC 014--IMGT_hVK_1_17 (antibody, V domains shown)
VH: QSVEESGGRLVTPGTPLTLTCTVSGFSLSSNAINWVRQAPGKGLEWIGYIAVSGNTYYASWAKGRFTISKASTTVDLKMTSPTAEDTGTYFCGKSNIWGPGTLVTVSL
VL: DIQMTQSPSSLSASVGDRVTITCRASQGVRTNKLAWFQQKPGQPPKRLIYSASTLQSGVPSRFSGSGSGTEFTLTISSLQSEDFATYYCLGYFDCSIADCVAFGGGTKVEIK
The molecule B1 showed a BL in assay [1] of 150 RU.

B2: Rb86 HC 001_IGHV3_23_04 / LC Rb86 (antibody, V domains shown)
VH: QQLVESGGGLVQPGGSLRLSCAASGFSLSSNAINWVRQAPGKGLEWVGYIAVSGNTYYASWAKGRFTISRDNSKNTLYLQMNSLRAEDTAVYYCGKSNIWGQGTLVTVSS
VL: AQVLTQTTSPVSAAVGSTVTISCQSSQSVRTNKLAWFQQKPGQPPKRLIYSASTLDFGVPSRFSASGSGTQFTLTISDVQCDDAATYYCLGYFDCSIADCVAFGGGTEVVVK
B2 showed a BL in assay [1] of 197 RU.

B3: Rb86 HC 001_IGHV3_23_04 / LC 005--IMGT_hVK_4_1 (antibody, V domains shown)
VH: QQLVESGGGLVQPGGSLRLSCAASGFSLSSNAINWVRQAPGKGLEWVGYIAVSGNTYYASWAKGRFTISRDNSKNTLYLQMNSLRAEDTAVYYCGKSNIWGQGTLVTVSS
VL: DIVMTQSPDSLAVSLGERATINCKSSQSVRTNKLAWFQQKPGQPPKRLIYSASTLDSGVPDRFSGSGSGTDFTLTISSLQAEDVAVYYCLGYFDSSIADSVAFGGGTKVEIK
As for B3, the BL in assay [1] was found to be 62.9 RU.

B4: Rb86 HC 001_IGHV3_23_04 / LC 015--IMGT_hVK_1_17 (antibody, V domains shown)
VH: QQLVESGGGLVQPGGSLRLSCAASGFSLSSNAINWVRQAPGKGLEWVGYIAVSGNTYYASWAKGRFTISRDNSKNTLYLQMNSLRAEDTAVYYCGKSNIWGQGTLVTVSS
VL: DIQMTQSPSSLSASVGDRVTITCRASQGVRTNKLAWFQQKPGQPPKRLIYSASTLQSGVPSRFSGSGSGTEFTLTISSLQPEDFATYYCLGYFDSSIADSVAFGGGTKVEIK
In assay [1], B4 came in with a BL of 63.6 RU.

B5: Rb86 variant: HC 001_IGHV3_23_04 / LC 002--IMGT_hVK_4_1 (antibody, V domains shown)
VH: QQLVESGGGLVQPGGSLRLSCAASGFSLSSNAINWVRQAPGKGLEWVGYIAVSGNTYYASWAKGRFTISRDNSKNTLYLQMNSLRAEDTAVYYCGKSNIWGQGTLVTVSS
VL: AQVMTQSPDSLAVSLGERATINCKSSQSVRTNKLAWFQQKPGQPPKRLIYSASTLDSGVPDRFSGSGSGTDFTLTISSLQAEDVAVYYCLGYFDCSIADCVAFGGGTKVEIK
Regarding B5, the “half-life (t1/2)” value in assay [2] was found to be 5.36 min.

B6: Rb86 HC 001_IGHV3_23_04 / LC 003--IMGT_hVK_4_1 (antibody, V domains shown)
VH: QQLVESGGGLVQPGGSLRLSCAASGFSLSSNAINWVRQAPGKGLEWVGYIAVSGNTYYASWAKGRFTISRDNSKNTLYLQMNSLRAEDTAVYYCGKSNIWGQGTLVTVSS
VL: AQVMTQSPDSLAVSLGERATINCKSSQSVRTNKLAWFQQKPGQPPKRLIYSASTLDSGVPDRFSGSGSGTDFTLTISSLQAEDVAVYYCLGYFDCSIADCVAFGGGTEVVVK
The molecule B6 returned a BL in assay [1] of 102 RU.

B7: Rb86 HC 002--IMGT_hVH_3_23 / LC Rb86 (antibody, V domains shown)
VH: QSVLESGGGLVQPGGSLRLSCAASGFSLSSNAINWVRQAPGKGLEWVGYIAVSGNTYYASWAKGRFTISRDNSKNTLYLQMNSLRAEDTAVYYCGKSNIWGPGTLVTVSS
VL: AQVLTQTTSPVSAAVGSTVTISCQSSQSVRTNKLAWFQQKPGQPPKRLIYSASTLDFGVPSRFSASGSGTQFTLTISDVQCDDAATYYCLGYFDCSIADCVAFGGGTEVVVK
In assay [1], B7 came in with a BL of 225 RU.

B8: Rb86 HC 001_IGHV3_23_04 / LC 001--IMGT_hVK_1_5 (antibody, V domains shown)
VH: QQLVESGGGLVQPGGSLRLSCAASGFSLSSNAINWVRQAPGKGLEWVGYIAVSGNTYYASWAKGRFTISRDNSKNTLYLQMNSLRAEDTAVYYCGKSNIWGQGTLVTVSS
VL: DIQMTQSTSTLSASVGDRVTITCQSSQSVRTNKLAWFQQKPGKAPKRLIYSASTLDFGVPSRFSGSGSGTEFTLTISSLQPDDFATYYCLGYFDCSIADCVAFGGGTKVEIK
For the molecule B8, the BL in assay [1] was 101 RU.

B9: Rb86 variant: HC 001_IGHV3_23_04 / LC 005--IMGT_hVK_4_1 (antibody, V domains shown)
VH: QQLVESGGGLVQPGGSLRLSCAASGFSLSSNAINWVRQAPGKGLEWVGYIAVSGNTYYASWAKGRFTISRDNSKNTLYLQMNSLRAEDTAVYYCGKSNIWGQGTLVTVSS
VL: DIVMTQSPDSLAVSLGERATINCKSSQSVRTNKLAWFQQKPGQPPKRLIYSASTLDSGVPDRFSGSGSGTDFTLTISSLQAEDVAVYYCLGYFDSSIADSVAFGGGTKVEIK
For B9, the “half-life (t1/2)” value in assay [2] came to 1.71 min.

B10: Rb86 HC 001_IGHV3_23_04 / LC 010--IMGT_hVK_1_17 (antibody, V domains shown)
VH: QQLVESGGGLVQPGGSLRLSCAASGFSLSSNAINWVRQAPGKGLEWVGYIAVSGNTYYASWAKGRFTISRDNSKNTLYLQMNSLRAEDTAVYYCGKSNIWGQGTLVTVSS
VL: DIQMTQSPSSLSASVGDRVTITCRASQGVRTNKLGWYQQKPGKAPKRLIYSASTLQSGVPSRFSGSGSGTEFTLTISSLQPEDFATYYCLGYFDCSIADCVAFGGGTKVEIK
For B10, in assay [1], the BL was -4.7 RU.

B11: Rb86 HC 001_IGHV3_23_04 / LC 004--IMGT_hVK_4_1 (antibody, V domains shown)
VH: QQLVESGGGLVQPGGSLRLSCAASGFSLSSNAINWVRQAPGKGLEWVGYIAVSGNTYYASWAKGRFTISRDNSKNTLYLQMNSLRAEDTAVYYCGKSNIWGQGTLVTVSS
VL: DIVMTQSPDSLAVSLGERATINCKSSQSVRTNKLAWFQQKPGQPPKRLIYSASTLDSGVPDRFSGSGSGTDFTLTISSLQAEDVAVYYCLGYFDCSIADCVAFGGGTKVEIK
Consider B11, for which the BL in assay [1] turned out to be 59.2 RU.

B12: Rb86 variant: HC 001_IGHV3_23_04 / LC Rb86 (antibody, V domains shown)
VH: QQLVESGGGLVQPGGSLRLSCAASGFSLSSNAINWVRQAPGKGLEWVGYIAVSGNTYYASWAKGRFTISRDNSKNTLYLQMNSLRAEDTAVYYCGKSNIWGQGTLVTVSS
VL: AQVLTQTTSPVSAAVGSTVTISCQSSQSVRTNKLAWFQQKPGQPPKRLIYSASTLDFGVPSRFSASGSGTQFTLTISDVQCDDAATYYCLGYFDCSIADCVAFGGGTEVVVK
Consider B12, for which, in assay [2], the “half-life (t1/2)” value is 12.7 min.

B13: Rb86 HC 001_IGHV3_23_04 / LC 002--IMGT_hVK_4_1 (antibody, V domains shown)
VH: QQLVESGGGLVQPGGSLRLSCAASGFSLSSNAINWVRQAPGKGLEWVGYIAVSGNTYYASWAKGRFTISRDNSKNTLYLQMNSLRAEDTAVYYCGKSNIWGQGTLVTVSS
VL: AQVMTQSPDSLAVSLGERATINCKSSQSVRTNKLAWFQQKPGQPPKRLIYSASTLDSGVPDRFSGSGSGTDFTLTISSLQAEDVAVYYCLGYFDCSIADCVAFGGGTKVEIK
As for B13, the BL in assay [1] was determined as 108 RU.

B14: Rb86 HC 001_IGHV3_23_04 / LC 012--IMGT_hVK_1_17 (antibody, V domains shown)
VH: QQLVESGGGLVQPGGSLRLSCAASGFSLSSNAINWVRQAPGKGLEWVGYIAVSGNTYYASWAKGRFTISRDNSKNTLYLQMNSLRAEDTAVYYCGKSNIWGQGTLVTVSS
VL: DIQMTQSPSSLSASVGDRVTITCRASQGVRTNKLAWFQQKPGQPPKRLIYSASTLQSGVPSRFSGSGSGTEFTLTISSLQPEDFATYYCLGYFDCSIADCVAFGGGTKVEIK
As to B14, in assay [1], the BL stood at 92.2 RU.

B15: Rb86 variant: HC 001_IGHV3_23_04 / LC 001--IMGT_hVK_1_5 (antibody, V domains shown)
VH: QQLVESGGGLVQPGGSLRLSCAASGFSLSSNAINWVRQAPGKGLEWVGYIAVSGNTYYASWAKGRFTISRDNSKNTLYLQMNSLRAEDTAVYYCGKSNIWGQGTLVTVSS
VL: DIQMTQSTSTLSASVGDRVTITCQSSQSVRTNKLAWFQQKPGKAPKRLIYSASTLDFGVPSRFSGSGSGTEFTLTISSLQPDDFATYYCLGYFDCSIADCVAFGGGTKVEIK
B15: the “half-life (t1/2)” value in assay [2] stood at 3.41 min.

B16: Rb86 HC 001_IGHV3_23_04 / LC 017--IMGT_hVK_1_17 (antibody, V domains shown)
VH: QQLVESGGGLVQPGGSLRLSCAASGFSLSSNAINWVRQAPGKGLEWVGYIAVSGNTYYASWAKGRFTISRDNSKNTLYLQMNSLRAEDTAVYYCGKSNIWGQGTLVTVSS
VL: DIQMTQSPSSLSASVGDRVTITCRSSQSVRTNKLAWFQQKPGQPPKRLIYSASTLDFGVPSRFSGSGSGTEFTLTISSLQPEDFATYYCLGYFDCSIADCVAFGGGTKVEIK
In assay [1], B16 yielded a BL of 91.1 RU.

B17: Rb86 HC 001_IGHV3_23_04 / LC 013--IMGT_hVK_1_17 (antibody, V domains shown)
VH: QQLVESGGGLVQPGGSLRLSCAASGFSLSSNAINWVRQAPGKGLEWVGYIAVSGNTYYASWAKGRFTISRDNSKNTLYLQMNSLRAEDTAVYYCGKSNIWGQGTLVTVSS
VL: DIQMTQSTSSLSASVGDRVTITCRASQGVRTNKLAWFQQKPGQPPKRLIYSASTLQSGVPSRFSGSGSGTEFTLTISSLQPEDFATYYCLGYFDCSIADCVAFGGGTKVEIK
On to B17, for which, in assay [1], the BL came out at 90.9 RU.

B18: Rb86 HC 001_IGHV3_23_04 / LC 014--IMGT_hVK_1_17 (antibody, V domains shown)
VH: QQLVESGGGLVQPGGSLRLSCAASGFSLSSNAINWVRQAPGKGLEWVGYIAVSGNTYYASWAKGRFTISRDNSKNTLYLQMNSLRAEDTAVYYCGKSNIWGQGTLVTVSS
VL: DIQMTQSPSSLSASVGDRVTITCRASQGVRTNKLAWFQQKPGQPPKRLIYSASTLQSGVPSRFSGSGSGTEFTLTISSLQSEDFATYYCLGYFDCSIADCVAFGGGTKVEIK
In the case of B18, in assay [1], the BL was determined as 96.2 RU.

B19: Rb86 variant: HC 001_IGHV3_23_04 / LC 004--IMGT_hVK_4_1 (antibody, V domains shown)
VH: QQLVESGGGLVQPGGSLRLSCAASGFSLSSNAINWVRQAPGKGLEWVGYIAVSGNTYYASWAKGRFTISRDNSKNTLYLQMNSLRAEDTAVYYCGKSNIWGQGTLVTVSS
VL: DIVMTQSPDSLAVSLGERATINCKSSQSVRTNKLAWFQQKPGQPPKRLIYSASTLDSGVPDRFSGSGSGTDFTLTISSLQAEDVAVYYCLGYFDCSIADCVAFGGGTKVEIK
As for B19, the “half-life (t1/2)” value in assay [2] is 3.44 min.

B20: Rb86 HC 001_IGHV3_23_04 / LC 006--IMGT_hVK_7_3 (antibody, V domains shown)
VH: QQLVESGGGLVQPGGSLRLSCAASGFSLSSNAINWVRQAPGKGLEWVGYIAVSGNTYYASWAKGRFTISRDNSKNTLYLQMNSLRAEDTAVYYCGKSNIWGQGTLVTVSS
VL: DIVLTQSPASLAVSPGQRATITCQSSQSVRTNKLAWFQQKPGQPPKRLIYSASTLDFGVPARFSGSGSGTDFTLTINPVEANDTANYYCLGYFDCSIADCVAFGGGTKVEIK
For the molecule B20, in assay [1], the BL turned out to be 97.9 RU.

B21: Rb86 variant: HC 001_IGHV3_23_04 / LC 003--IMGT_hVK_4_1 (antibody, V domains shown)
VH: QQLVESGGGLVQPGGSLRLSCAASGFSLSSNAINWVRQAPGKGLEWVGYIAVSGNTYYASWAKGRFTISRDNSKNTLYLQMNSLRAEDTAVYYCGKSNIWGQGTLVTVSS
VL: AQVMTQSPDSLAVSLGERATINCKSSQSVRTNKLAWFQQKPGQPPKRLIYSASTLDSGVPDRFSGSGSGTDFTLTISSLQAEDVAVYYCLGYFDCSIADCVAFGGGTEVVVK
For B21, the “half-life (t1/2)” value in assay [2] amounted to 4.76 min.
